Reference: the supplement of paper PMC11246515
± gives the standard deviation of the averaged measurements.

Test: total protein half-life in vivo (active degradation + dilution); higher = more stable protein
[1] = E. coli NCM3722 delta-clpP delta-lon delta-hslV, growth: N-lim chemostat, doubling time 6 h
[2] = E. coli NCM3722 delta-clpP, growth: N-lim chemostat, doubling time 6 h
[3] = E. coli NCM3722 delta-hslV, growth: N-lim chemostat, doubling time 6 h
[4] = E. coli NCM3722 delta-lon, growth: N-lim chemostat, doubling time 6 h
[5] = E. coli NCM3722 delta-smpB, growth: N-lim chemostat, doubling time 6 h
[6] = wild type E. coli NCM3722, growth: C-lim chemostat, doubling time 3 h
[7] = wild type E. coli NCM3722, growth: C-lim chemostat, doubling time 6 h
[8] = wild type E. coli NCM3722, growth: C-lim chemostat, doubling time 12 h
[9] = wild type E. coli NCM3722, growth: N-lim chemostat, doubling time 6 h
[10] = wild type E. coli NCM3722, growth: N-lim chemostat, doubling time 12 h
[11] = wild type E. coli NCM3722, growth: P-lim chemostat, doubling time 12 h
[12] = wild type E. coli NCM3722, growth: P-lim chemostat, doubling time 6 h

Sequence: MFRRRGVTLTKALLTAVCMLAAPLTQAISVGNLTFSLPSETDFVSKRVVNNNKSARIYRIAISAIDSPGSSELRTRPVDGELLFAPRQLALQAGESEYFKFYYHGPRDNRERYYRVSFREVPTRNHTRRSPTGGVVSTEPVVVMDTILVVRPRQVQFKWSFDKVTGTVSNTGNTWFKLLIKPGCDSTEEEGDAWYLRPGDVVHQPELRQPGNHYLVYNDKFIKISDSCPAKPPSAD
- total protein half-life in vivo [1]: 4.58 h
- total protein half-life in vivo [2]: 4.57 ± 0.28 h
- total protein half-life in vivo [3]: 3.66 h
- total protein half-life in vivo [4]: 4.37 h
- total protein half-life in vivo [5]: 4.89 ± 0.82 h
- total protein half-life in vivo [6]: 2.51 ± 0.53 h
- total protein half-life in vivo [7]: 3.37 h
- total protein half-life in vivo [8]: 9.74 h
- total protein half-life in vivo [9]: 3.84 h
- total protein half-life in vivo [10]: 6.84 h
- total protein half-life in vivo [11]: 9.993 ± 0.096 h

Sequence: MFSEVMRYILDLGPTVMLPIVIIIFSKILGMKAGDCFKAGLHIGIGFVGIGLVIGLMLDSIGPAAKAMAENFDLNLHVVDVGWPGSSPMTWASQIALVAIPIAILVNVAMLLTRMTRVVNVDIWNIWHMTFTGALLHLATGSWMIGMAGVVIHAAFVYKLGDWFARDTRNFFELEGIAIPHGTSAYMGPIAVLVDAIIEKIPGVNRIKFSADDIQRKFGPFGEPVTVGFVMGLIIGILAGYDVKGVLQLAVKTAAVMLLMPRVIKPIMDGLTPIAKQARSRLQAKFGGQEFLIGLDPALLLGHTAVVSASLIFIPLTILIAVCVPGNQVLPFGDLATIGFFVAMAVAVHRGNLFRTLISGVIIMSITLWIATQTIGLHTQLAANAGALKAGGMVASMDQGGSPITWLLIQVFSPQNIPGFIIIGAIYLTGIFMTWRRARGFIKQEKVVLAE
- total protein half-life in vivo [1]: 6.09 h

Sequence: MFSGLLIILVPLIVGYLIPLRQQAALKVINQLLSWMVYLILFFMGISLAFLDNLASNLLAILHYSAVSITVILLCNIAALMWLERGLPWRNHHQQEKLPSRIAMALESLKLCGVVVIGFAIGLSGLAFLQHATEASEYTLILLLFLVGIQLRNNGMTLKQIVLNRRGMIVAVVVVVSSLIGGLINAFILDLPINTALAMASGFGWYSLSGILLTESFGPVIGSAAFFNDLARELIAIMLIPGLIRRSRSTALGLCGATSMDFTLPVLQRTGGLDMVPAAIVHGFILSLLVPILIAFFSA
- total protein half-life in vivo [7]: 3.12 h
- total protein half-life in vivo [10]: 8.87 h
- total protein half-life in vivo [11]: 8.67 ± 0.3 h

Sequence: MFSIKPGPRNLPIDNPTLLSWNITDGDLNSKLNTLEYLNCITNIINSCGVYPQGLKDREIISTFHAEKVINDLLKNDYKISLSPDTTYRELNKAAQRSITAPDRIGERKTWVYQRDTMIERGDNSGVYQYGRAEHFTHIISDKPSPKDKYVAYAINIPDYELAADVYNINVTSPSGQQETFKILINLEHLRQTLERKSLTAVQKSQCEIITPKKPGEAILHAFNATYQQIRENMSEFARCHYGYIQIPPVTTFRADGPETPEEEKGYWFHAYQPEDLCTIHNPMGDLQDFIALVKDAKKFGIDIIPDYTFNFMGIGGSGKNDLDYPSADIRAKISKDIEGGIPGYWQGQVLIPFIKDPVTKERKQIHPEDIHLTAKDFEASKDNISKDEWENLHALKEKRLNGMPKTTPKSDQVIMLQNQYVREMRKYGVRGLRYDAAKHSKHEQIERSITPPLKNYNERLHNTNLFNPKYHKKAVMNYMEYLVTCQLDEQQMSSLLYERDDLSAIDFSLLMKTIKAFSFGGDLQTLASKPGSTISSIPSERRILININHDFPNNGNLFNDFLFNHQQDEQLAMAYIAALPFSRPLVYWDGQVLKSTTEIKNYDGSTRVGGEAWLNKGCSTYQQLYNEFHALYIDKAGIWSAFEGVSATKNVLAFSRGDSVNINHSPHDGLVIINKGNEEVEGTWPNKLQPGIYKNMGSNSVNIIINNTRKIIPPGKVFTLRGGTLNINIPGRSALLLGKTGEPPNYLYL
- total protein half-life in vivo [1]: 4.26 ± 0.095 h
- total protein half-life in vivo [2]: 3.78 h
- total protein half-life in vivo [3]: 3.6 ± 0.55 h
- total protein half-life in vivo [4]: 3.86 ± 0.15 h
- total protein half-life in vivo [5]: 3.93 ± 0.2 h
- total protein half-life in vivo [6]: 3.14 ± 0.21 h
- total protein half-life in vivo [7]: 4.93 h
- total protein half-life in vivo [8]: 9.02 h
- total protein half-life in vivo [9]: 3.51 h
- total protein half-life in vivo [10]: 5.65 h
- total protein half-life in vivo [12]: 4.45 h
- total protein half-life in vivo [11]: 11.3 ± 3.7 h

Sequence: MFTATEAVPVAKVVAGNKRYPGVVALDNVNFTLNKGEVRALLGKNGAGKSTLIRMLTGSERPDSGDIWIGETRLEGDEATLTRRAAELGVRAVYQELSLVEGLTVAENLCLGQWPRRNGMIDYLQMAQDAQRCLQALGVDVSPEQLVSTLSPAQKQLVEIARVMKGEPRVVILDEPTSSLASAEVELVISAVKKMSALGVAVIYVSHRMEEIRRIASCATVMRDGQVAGDVMLENTSTHHIVSLMLGRDHVDIAPVAPQEIVDQAVLEVRALRHKPKLEDISFTLRRGEVLGIAGLLGAGRSELLKAIVGLEEYEQGEIVINGEKITRPDYGDMLKRGIGYTPENRKEAGIIPWLGVDENTVLTNRQKISANGVLQWSTIRRLTEEVMQRMTVKAASSETPIGTLSGGNQQKVVIGRWVYAASQILLLDEPTRGVDIEAKQQIYRIVRELAAEGKSVVFISSEVEELPLVCDRILLLQHGTFSQEFHAPVNVDELMSAILSVH
- total protein half-life in vivo [8]: 7.2 ± 4.9 h
- total protein half-life in vivo [12]: 4.92 h

Sequence: MFTGIVQGTAKLVSIDEKPNFRTHVVELPDHMLDGLETGASVAHNGCCLTVTEINGNHVSFDLMKETLRITNLGDLKVGDWVNVERAAKFSDEIGGHLMSGHIMTTAEVAKILTSENNRQIWFKVQDSQLMKYILYKGFIGIDGISLTVGEVTPTRFCVHLIPETLERTTLGKKKLGARVNIEIDPQTQAVVDTVERVLAARENAMNQPGTEA [P0AFU8]
- total protein half-life in vivo [1]: 4.8 ± 0.2 h
- total protein half-life in vivo [2]: 4.397 ± 0.01 h
- total protein half-life in vivo [3]: 4.123 ± 0.0054 h
- total protein half-life in vivo [4]: 4.774 ± 0.047 h
- total protein half-life in vivo [5]: 4.561 ± 0.029 h
- total protein half-life in vivo [6]: 3.06 ± 0.28 h
- total protein half-life in vivo [7]: 5.3745 ± 0.003 h
- total protein half-life in vivo [8]: 12.1 ± 4.4 h
- total protein half-life in vivo [9]: 4.25 ± 0.16 h
- total protein half-life in vivo [10]: 6.8 ± 0.16 h
- total protein half-life in vivo [12]: 5.96 ± 0.6 h
- total protein half-life in vivo [11]: 11.6 ± 0.24 h

Sequence: MFTIKTDDLTHPAVQALVAYHISGMLQQSPPESSHALDVQKLRNPTVTFWSVWEGEQLAGIGALKLLDDKHGELKSMRTAPNYLRRGVASLILRHILQVAQDRCLHRLSLETGTQAGFTACHQLYLKHGFADCEPFADYRLDPHSRFLSLTLCENNELP
- total protein half-life in vivo [2]: 1.46 ± 0.029 h
- total protein half-life in vivo [3]: 0.809 h
- total protein half-life in vivo [4]: 0.314 h
- total protein half-life in vivo [5]: 0.854 ± 0.023 h
- total protein half-life in vivo [9]: 1.03 ± 0.61 h
- total protein half-life in vivo [10]: 1.92 h

Sequence: MGAYLIRRLLLVIPTLWAIITINFFIVQIAPGGPVDQAIAAIEFGNAGVLPGAGGEGVRASHAQTGVGNISDSNYRGGRGLDPEVIAEITHRYGFDKPIHERYFKMLWDYIRFDFGDSLFRSASVLTLIKDSLPVSITLGLWSTLIIYLVSIPLGIRKAVYNGSRFDVWSSAFIIIGYAIPAFLFAILLIVFFAGGSYFDLFPLRGLVSANFDSLPWYQKITDYLWHITLPVLATVIGGFAALTMLTKNSFLDEVRKQYVVTARAKGVSEKNILWKHVFRNAMLLVIAGFPATFISMFFTGSLLIEVMFSLNGLGLLGYEATVSRDYPVMFGTLYIFTLIGLLLNIVSDISYTLVDPRIDFEGR [P0AFU0]
- total protein half-life in vivo [1]: 7.09 ± 0.14 h
- total protein half-life in vivo [2]: 5.97 h
- total protein half-life in vivo [3]: 6.39 ± 0.7 h
- total protein half-life in vivo [4]: 5.52 ± 0.49 h
- total protein half-life in vivo [5]: 5.85 ± 0.32 h
- total protein half-life in vivo [6]: 3.47 ± 0.61 h
- total protein half-life in vivo [7]: 5.83 ± 1.1 h
- total protein half-life in vivo [8]: 13.9 ± 1.7 h
- total protein half-life in vivo [9]: 5.33 h
- total protein half-life in vivo [10]: 11.8 ± 1.6 h
- total protein half-life in vivo [12]: 6.2 h
- total protein half-life in vivo [11]: 12.4 ± 0.79 h

Sequence: MGDSILSQAEIDALLNGDSEVKDEPTASVSGESDIRPYDPNTQRRVVRERLQALEIINERFARHFRMGLFNLLRRSPDITVGAIRIQPYHEFARNLPVPTNLNLIHLKPLRGTGLVVFSPSLVFIAVDNLFGGDGRFPTKVEGREFTHTEQRVINRMLKLALEGYSDAWKAINPLEVEYVRSEMQVKFTNITTSPNDIVVNTPFHVEIGNLTGEFNICLPFSMIEPLRELLVNPPLENSRNEDQNWRDNLVRQVQHSQLELVANFADISLRLSQILKLNPGDVLPIEKPDRIIAHVDGVPVLTSQYGTLNGQYALRIEHLINPILNSLNEEQPK
- total protein half-life in vivo [1]: 4.44 ± 0.11 h
- total protein half-life in vivo [6]: 2.17 ± 0.39 h
- total protein half-life in vivo [7]: 3.96 ± 0.9 h
- total protein half-life in vivo [8]: 6.79 ± 0.98 h
